Assay results published in patent US20180335433A1 (LA JOLLA INSTITUTE FOR ALLERGY AND IMMUNOLOGY, published 2018).

B1: Myc-tagged PKCθ V3 domain (aa 282-379 of human PKCθ, N-terminal Myc tag) (other)
chain: GINQKLMAEALAMIESTQQARCLRDTEQIFREGPVEIGLPCSIKNEARPPCLPTPGKREPQGISWESPLDEVDKMCHLPEPELNKERPSLQIKLKIED
notes: also called Myc-tagged V3; isolated V3 domain; not shown: N-terminal Myc tag of the pMIG vector
B2: PKCθ P330/1/4/6A (4P-A; all four Pro residues of the PR motif mutated to alanine) (enzyme)
chain: MSPFLRIGLSNFDCGSCQSCQGEAVNPYCAVLVKEYVESENGQMYIQKKPTMYPPWDSTFDAHINKGRVMQIIVKGKNVDLISETTVELYSLAERCRKNNGKTEIWLELKPQGRMLMNARYFLEMSDTKDMNEFETEGFFALHQRRGAIKQAKVHHVKCHEFTATFFPQPTFCSVCHEFVWGLNKQGYQCRQCNAAIHKKCIDKVIAKCTGSAINSRETMFHKERFKIDMPHRFKVYNYKSPTFCEHCGTLLWGLARQGLKCDACGMNVHHRCQTKVANLCGINQKLMAEALAMIESTQQARCLRDTEQIFREGPVEIGLPCSIKNEARAACLATAGKREPQGISWESPLDEVDKMCHLPEPELNKERPSLQIKLKIEDFILHKMLGKGSFGKVFLAEFKKTNQFFAIKALKKDVVLMDDDVECTMVEKRVLSLAWEHPFLTHMFCTFQTKENLFFVMEYLNGGDLMYHIQSCHKFDLSRATFYAAEIILGLQFLHSKGIVYRDLKLDNILLDKDGHIKIADFGMCKENMLGDAKTNTFCGTPDYIAPEILLGQKYNHSVDWWSFGVLLYEMLIGQSPFHGQDEEELFHSIRMDNPFYPRWLEKEAKDLLVKLFVREPEKRLGVRGDIRQHPLFREINWEELERKEIDPPFRPKVKSPFDCSNFDKEFLNEKPRLSFADRALINSMDQNMFRNFSFMNPGMERLIS

Assays:
[1] = biological target: T1, SH3-inactivated (W97A) Lck (UniProt P06239 2-509, limits assumed); assay: anti-Myc IP from stimulated JCam1.6 cells reconstituted with Lck W97A, immunoblot for Lck (FIG. 12)
T1 construct: whole, on cells; also called Lck W97A
T1 sequence (P06239 2-509 W97A limits assumed): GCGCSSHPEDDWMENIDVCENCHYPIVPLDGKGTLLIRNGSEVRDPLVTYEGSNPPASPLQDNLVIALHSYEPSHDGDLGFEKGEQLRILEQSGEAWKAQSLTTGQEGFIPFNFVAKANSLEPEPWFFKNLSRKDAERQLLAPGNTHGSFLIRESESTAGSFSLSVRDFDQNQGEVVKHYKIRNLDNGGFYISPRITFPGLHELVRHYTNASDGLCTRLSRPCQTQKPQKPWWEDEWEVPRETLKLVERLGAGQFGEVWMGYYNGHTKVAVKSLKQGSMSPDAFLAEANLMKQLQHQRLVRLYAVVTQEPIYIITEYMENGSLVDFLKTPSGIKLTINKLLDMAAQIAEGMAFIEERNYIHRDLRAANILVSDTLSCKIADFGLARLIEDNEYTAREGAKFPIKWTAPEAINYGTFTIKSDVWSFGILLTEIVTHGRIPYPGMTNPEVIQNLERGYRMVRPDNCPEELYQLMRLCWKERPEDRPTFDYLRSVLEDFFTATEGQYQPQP
Description: FIG. 12 Interaction between CD28 and the V3 of PKCθ is Lck-dependent. PKCθ-Lck-CD28 association in Lck-deficient (JCam1.6) Jurkat cells cotransfected with Myc-tagged PKCθ−V3 plus WT Lck or its indicated mutants, Transfected cells were stimulated with anti-CD3 and anti-CD28 for 5 min, immunoprecipitated with an anti-Myc Ab, and immunoblotted for Lck and endogenous CD28. Data are from three experiments.

[2] = biological target: T2, CD28, endogenous in primary mouse CD4+ T cells (mouse, UniProt P31041 20-218); assay: anti-CD28 co-IP, stimulated transduced PKCθ-/- T cells (FIG. 4c)
T2 construct: whole, on cells; Immunoprecipitated with anti-CD28 mAb from lysates of retrovirally transduced mouse T cells; also called murine CD28
T2 sequence (P31041 20-218): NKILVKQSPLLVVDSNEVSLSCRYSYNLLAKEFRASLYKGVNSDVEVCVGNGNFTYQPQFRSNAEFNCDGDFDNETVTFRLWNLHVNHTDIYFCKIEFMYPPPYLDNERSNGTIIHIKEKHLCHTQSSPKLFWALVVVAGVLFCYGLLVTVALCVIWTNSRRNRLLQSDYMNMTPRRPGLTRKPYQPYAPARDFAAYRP

Binder	binding result [1]	binding result [2]
B1	no binding	–
B2	–	no binding
